Assay results taken from patent US7329517B2, “Escapin protein, a broadly antimicrobial compound from ink of the sea hare Aplysia californica, and uses thereof” (priority 2004, dated 2008).

Key:
[1] = substrate: NCCCC[C@H](N)C(=O)O; assay: L-amino acid oxidase (LAAO) enzyme-coupled assay of purified escapin; assay type: biochemical, Aplysia californica; conditions: other: horseradish peroxidase/o-dianisidine coupled assay, 0.1 M Tris-HCl pH 7.6, room temperature, O.D. 436 nm, Lineweaver-Burk plot
From the text: (§1) Animals. Sea hares, Aplysia californica, were collected in California or provided by the NIH National Resource for Aplysia Facility (http://www.rsmas.miami.edu/groups/sea-hares/). They were maintained in aquaria containing recirculating, filtered, and aerated artificial sea water (Instant Ocean™: Aquarium Systems), and fed red alga (Gracilaria ferox). Ink gland processing. The ink glands were surgically removed from sea hares, gently squeezed in a Petri dish with the blunt end of a scalpel handle to release most of the ink secretion from the individual vesicles contained in the gland. The secretion was then pipetted to a microfuge tube and frozen at −80° C. until needed. Opaline gland processing. The opaline glands were surgically removed from sea hares, gently blotted dry on a Kimwipe® to remove seawater (since water causes opaline secretion to polymerize) and transferred to an ultracentrifuge tube. This was centrifuged at 30,000 g for 30 min at 4° C. (Beckman Optima TLX Ultracentrifuge). The pure opaline was then pipetted away from the gland tissue, transferred to a microfuge tube, and frozen at −80° C. until needed. Purification of proteins from purple ink. Proteins were isolated and purified using an ÄKTA 100 Automated FPLC (Amersham Pharmacia Biotech). A preparative grade Hi-Load Superdex 200 16/60 column (Pharmacia) or an in-house-packed Sephacryl 300 HR 26/60 column was used for initial size separation with fractions collected in an automated fraction collector. Fractions identified to have activity by bacterial assay were concentrated using a Biomax 5K NMWL membrane Ultrafree Centrifugal Filter Device (Millipore). Active fractions were further purified on a cation exchange Mono S column, and fractions were collected, assayed, concentrated, and frozen at −80° C. One purified protein of interest was named “escapin” and was bright yellow. Escapin's concentration was determined by Bradford assay using bovine serum albumen (BSA) as a standard. The molecular mass of purified escapin was determined by gel filtration using a Superose-6 10/30 column (Amersham Pharmacia Biotech) eluted with 50 mM potassium phosphate buffer (pH 7.2) containing 150 mM KCl at a flow rate of 0.5 ml/min. The molecular weight markers were BSA (67 kDa), ovalbumen (43 kDa), and chymotrypsinogen A (25 kDa). Protein sequencing. Aplysia californica ink was analyzed for protein content using sodium dodecyl sulfate polyacrylamide gel electrophoresis (SDS-PAGE) on 12% gels. […] This band was blotted from the polyacrylamide gel to a PVDF membrane using CAPS transfer buffer and determined by protein microsequencing and proteomic mass spectrometry (University of Massachusetts Medical School Proteomic Mass Spectrometry Lab: http://www.umassmed.edu/proteomic/leszyk). […]

[2] = substrate: N=C(N)NCCC[C@H](N)C(=O)O; assay: as above; assay type: biochemical, Aplysia californica; conditions: other: horseradish peroxidase/o-dianisidine coupled assay, 0.1 M Tris-HCl pH 7.6, room temperature, O.D. 436 nm, Lineweaver-Burk plot
From the text: as §1

B1: Aplysia californica escapin (L-amino acid oxidase), wild type purified from ink, SEQ ID NO:1 (Aplysia californica) (protein)
chain: DGVCRNRRQCNKEVCGSSYDVAIVGAGPGGANSAYMLRESGLDIAVFEYSDRVGGRLFTYQLPNTPDVNLEIGGMRFIEGAMHRLWKVISELGLTPKVFKEGFGKEGRQRFYLRGQSLTKKQVKSGDVPYDLSPEEKANQGRLVEYYLEKLTGLQLNGGPLKREVALKLTVPDGRFLYDLTFDEALDLVASPEGKEFARDTHVFTSEVTLDASAISIFDDHLGEDYYGSEIYTLEEGMSSVPQGLLQTFLDAAKSNEFFPNNHLKALRRRTNGQYVLYFEPTTSKDGQTTINYLEPLKVVCAQRVILAMPVYALRQLDWSQLRNDRATQAYRAVRPMPASKVFMTFDQPWWLQNERKSWVTKSDALFSQMYDWQKSEASGDYILIASYADGLKAQYLRELKNQGEDIPGSDPGYNQVTVPLKDAILEHLTEAYGVERDSIPEPVTAASQFWTDYPFGCGWITWRAGYHFDDVISTMRRPSLKDEVYVVGSDYSWGLISSWIEGALETSENVINDYFL
notes: a signal peptide cleavage site between 18 and 19 amino acid residues was predicted by SignalIP; from tissue; host or cells: ink (ink gland secretion) of Aplysia californica
Km [1]: 31 µM | Vmax [1]: 1.92 µM/s | Km [2]: 25 µM | Vmax [2]: 1.56 µM/s
